# T1: C-terminal fragment of 30 kDa of the soluble form of GPC3 core protein (human, UniProt P51654 375-563)
# T1 construct: the shorter limit is written; also called C-terminal side; band of about 30 kDa; not shown: His tag at the C-terminus
# T1 chain: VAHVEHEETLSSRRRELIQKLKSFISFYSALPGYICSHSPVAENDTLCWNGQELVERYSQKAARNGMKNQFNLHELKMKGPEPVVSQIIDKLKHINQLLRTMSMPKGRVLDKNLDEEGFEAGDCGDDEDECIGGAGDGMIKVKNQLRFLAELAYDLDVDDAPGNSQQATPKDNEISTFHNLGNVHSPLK
# T2: GC-1 (GST fusion of GPC3 Ser495 to Lys563) (human, UniProt P51654 495-563)
# T2 construct: Made in E. coli DH5alpha; not shown: GST as encoded by pGEX-4T-3 (Amersham), N-terminal to the GPC3 peptide
# T2 sequence: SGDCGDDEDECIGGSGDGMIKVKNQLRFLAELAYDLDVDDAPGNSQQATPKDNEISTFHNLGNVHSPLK
# T3: GC-2 (GST fusion of GPC3 Gly510 to Lys563) (human, UniProt P51654 510-563)
# T3 construct: not shown: GST as encoded by pGEX-4T-3 (Amersham), N-terminal to the GPC3 peptide
# T3 sequence: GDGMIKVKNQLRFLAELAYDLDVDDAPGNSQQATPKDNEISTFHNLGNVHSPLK
# T4: GC-3 (GST fusion of GPC3 Ala524 to Lys563) (human, UniProt P51654 524-563)
# T4 construct: not shown: GST as encoded by pGEX-4T-3 (Amersham), N-terminal to the GPC3 peptide
# T4 chain: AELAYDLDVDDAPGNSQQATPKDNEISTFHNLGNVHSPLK
# B1: L9G11 (antibody, V domains shown)
# VH: QVQLQQPGAELVKPGASVKLSCKASGYTFTSYWMHWVKQRPGQGLEWIGTIDPSDSETHYNLQFKDTATLTVDKSSSTAYMQLSSLTSEDSAVYYCIRGAFYSSYSYWAWFAYWGQGTLVTVSA
# VL: DIVLTQSPTSLAVSLGQSVTISCRASESVEYYGTSLMQWYQQKPGQPPKLLIYGASNVESGVPARFSGSGSGTDFSLNIHPVEEDDIAMYFCQQSRKVPYTFGSGTKLEIK
# notes: Mouse monoclonal from hybridoma
# B2: M3B8 (antibody, V domains shown)
# VH: QVTLKESGPGILQPSQTLSLTCSFSGFSLSTYGMGVGWIRQPSGMGLEWLANIWWYDAKYYNSDLKSRLTISKDTSNNQVFLKISSVDTSDTATYYCAQMGLAWFAYWGQGTLVTVSA
# VL: DIKMTQSPSSMYASLGERVTITCKASQDINNYLSWFQQKPGKSPKTLIYRANRLVDGVPSRFSGSGSGQDYSLTISSLEYEDMGINYCLQCDEFPPWTFGGGTKLEIK
# notes: as for B1
# Tests used:
# full-length human GPC3 [1] = target: T5, full-length human GPC3 (human, UniProt P51654 25-554); test: flow cytometry, antibody at 5 µg/mL, HepG2 cells
# T5 construct: On CHO (DXB11) or SK-HEP-1 (SK-03) transfectants; also used here for the GPC3 on the hepatoma lines HepG2 and HuH-7; also called human glypican 3
# Description: (§1) Cells were dissociated with 1 mM EDTA pH 8.0 (GIBCO)/PBS and suspended in FACS buffer (1% FBS/PBS) at 1×10⁶ cells/mL. The suspension was dispensed to a Multiscreen-HV Filter Plate (Millipore) at 100 μL/well and the supernatant was removed by centrifugation. An anti-GPC3 antibody diluted to an appropriate concentration was added and reacted on ice for 30 minutes. The cells were washed once with FACS buffer and an FITC-labeled anti-mouse IgG antibody was added and reacted on ice for 30 minutes. After the reaction, the cells were centrifuged at 500 rpm for 1 minute, and the supernatant was removed. The cells were suspended in 400 μL of FACS buffer and subjected to flow cytometry. EPICS ELITE ESP (Beckman Coulter) was used as a flow cytometer. A gate was set on the living cell population with the histogram of forward scatter and side scatter.
# full-length human GPC3 [2] = target: T5, full-length human GPC3; test: flow cytometry, antibody at 5 µg/mL, HuH-7 cells
# Description: as §1
# [3] = target: T6, soluble form of GPC3 core protein (human, UniProt P51654 25-563); test: ELISA on plate coated with soluble GPC3 core protein
# T6 construct: not shown: His tag added to the C-terminus
# full-length human GPC3 [4] = target: T5, full-length human GPC3; test: BIACORE; the form of GPC3 used is not given
# [5] = target: T1, C-terminal fragment of 30 kDa of the …; test: Western blotting of soluble GPC3 core protein after reducing SDS-PAGE
# Description: The soluble form of GPC3 core protein was applied to a 10% SDS-PAGE mini (TEFCO) and electrophoresed under reducing conditions. It was transferred to Immobilon-P (Millipore) using Trans-Blot SD Semi-Dry Electrophoretic Transfer Cell (BIO-RAD). After the membrane was briefly washed with TBS-T (0.05% Tween 20, TBS), it was shaken in TBS-T containing 5% skim milk for 1 hour. The membrane was shaken in TBS-T for about 10 minutes, then each anti-GPC3 antibody diluted with TBS-T containing 1% skim milk was added and the membrane was shaken for 1 hour. The membrane was washed with TBS-T and shaken in a solution of HRP-anti-mouse IgG antibody (Amersham) diluted with TBS-T containing 1% skim milk for 1 hour, and then washed with TBS-T. Color development was carried out using ECL-Plus (Amersham) and detected using Hyperfilm ECL (Amersham).
# [6] = target: T6, soluble form of GPC3 core protein; test: competitive ELISA on coated soluble GPC3 core protein; labelled competitor biotin-M1E7;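 further: Biotin-labelled antibody added as 10 µL at 10 µg/mL for 1 h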
# Description: (§2) The antibodies were biotinylated using a Biotin Labeling Kit (Roche). The soluble form of GPC3 core protein was diluted to 1 μg/mL with the coating buffer and added to a plate at 100 μL/well and stored at 4° C. overnight to coat the plate. On the next day, 200 μL of the substrate buffer was added for blocking. The plate was left at 4° C. overnight or longer and an anti-GPC3 antibody was added to the plate at 100 μL/well and reacted at room temperature for 1 hour. After that, without washing of the plate, 10 μL of 10 μg/mL biotin-labeled anti-GPC3 antibody was added and further reacted for 1 hour. The plate was washed with 300 μL/well of the rinse buffer for 3 times. AP-streptavidin conjugate (ZYMED) was diluted to 1000-fold with the dilution buffer and added at 100 μL/well and reacted at room temperature for 1 hour. The plate was washed with 300 μL/well of the rinse buffer for 5 times.
# [7] = target: T6, soluble form of GPC3 core protein; test: competitive ELISA on coated soluble GPC3 core protein; labelled competitor biotin-M5B9;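 further: Biotin-labelled antibody added as 10 µL at 10 µg/mL for 1 h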
# Description: as §2
# [8] = target: T6, soluble form of GPC3 core protein; test: competitive ELISA on coated soluble GPC3 core protein; labelled competitor biotin-M6B1;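 further: Biotin-labelled antibody added as 10 µL at 10 µg/mL for 1 h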
# Description: as §2
# [9] = target: T6, soluble form of GPC3 core protein; test: competitive ELISA on coated soluble GPC3 core protein; labelled competitor biotin-L9G11;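 further: Biotin-labelled antibody added as 10 µL at 10 µg/mL for 1 h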
# Description: (§3) The obtained antibodies were classified according to the epitopes by a competitive ELISA. The antibodies were biotinylated using a Biotin Labeling Kit (Roche). The soluble form of GPC3 core protein was diluted to 1 μg/mL with the coating buffer and added to a plate at 100 μL/well and stored at 4° C. overnight to coat the plate. On the next day, 200 μL of the substrate buffer was added for blocking. The plate was left at 4° C. overnight or longer and an anti-GPC3 antibody was added to the plate at 100 μL/well and reacted at room temperature for 1 hour. After that, without washing of the plate, 10 μL of 10 μg/mL biotin-labeled anti-GPC3 antibody was added and further reacted for 1 hour. The plate was washed with 300 μL/well of the rinse buffer for 3 times. AP-streptavidin conjugate (ZYMED) was diluted to 1000-fold with the dilution buffer and added at 100 μL/well and reacted at room temperature for 1 hour. The plate was washed with 300 μL/well of the rinse buffer for 5 times.
# [10] = target: T6, soluble form of GPC3 core protein; test: competitive ELISA on coated soluble GPC3 core protein; labelled competitor biotin-M10D2;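 further: Biotin-labelled antibody added as 10 µL at 10 µg/mL for 1 h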
# [11] = target: T6, soluble form of GPC3 core protein; test: competitive ELISA on coated soluble GPC3 core protein; labelled competitor biotin-M11F1;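 further: Biotin-labelled antibody added as 10 µL at 10 µg/mL for 1 h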
# Description: as §2
# [12] = target: T6, soluble form of GPC3 core protein; test: competitive ELISA on coated soluble GPC3 core protein; labelled competitor biotin-M18D4;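 further: Biotin-labelled antibody added as 10 µL at 10 µg/mL for 1 h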
# Description: as §3
# [13] = target: T6, soluble form of GPC3 core protein; test: competitive ELISA on coated soluble GPC3 core protein; labelled competitor biotin-M3C11;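 further: Biotin-labelled antibody added as 10 µL at 10 µg/mL for 1 h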
# Description: as §3
# full-length human GPC3 [14] = target: T5, full-length human GPC3; test: flow cytometry, antibody at 5 µg/mL, CHO cells expressing human GPC3 (column CHO/human GPC3)
# Description: as §1
# [15] = target: T2, GC-1 (GST fusion of GPC3 Ser495 to …); test: Western blotting of GST-fusion proteins, reducing SDS-PAGE
# [16] = target: T3, GC-2 (GST fusion of GPC3 Gly510 to …); test: as above
# [17] = target: T4, GC-3 (GST fusion of GPC3 Ala524 to …); test: as above
# T6 sequence (P51654 25-563 S495A/S509A, form in doubt): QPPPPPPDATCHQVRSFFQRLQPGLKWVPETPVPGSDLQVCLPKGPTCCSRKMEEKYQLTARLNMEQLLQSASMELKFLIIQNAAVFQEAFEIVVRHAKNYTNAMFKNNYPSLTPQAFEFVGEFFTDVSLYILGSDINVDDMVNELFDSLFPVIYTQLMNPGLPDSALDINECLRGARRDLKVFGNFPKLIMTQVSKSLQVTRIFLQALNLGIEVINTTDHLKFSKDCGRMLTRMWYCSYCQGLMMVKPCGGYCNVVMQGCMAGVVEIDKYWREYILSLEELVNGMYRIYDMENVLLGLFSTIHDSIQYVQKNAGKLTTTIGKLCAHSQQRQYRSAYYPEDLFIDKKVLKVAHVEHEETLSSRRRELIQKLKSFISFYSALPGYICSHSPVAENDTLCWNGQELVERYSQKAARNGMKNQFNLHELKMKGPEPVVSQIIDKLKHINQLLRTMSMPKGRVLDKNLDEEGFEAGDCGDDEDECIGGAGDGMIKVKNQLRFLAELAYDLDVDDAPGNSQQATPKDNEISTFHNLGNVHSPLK
# T5 sequence (P51654 25-554 limits assumed): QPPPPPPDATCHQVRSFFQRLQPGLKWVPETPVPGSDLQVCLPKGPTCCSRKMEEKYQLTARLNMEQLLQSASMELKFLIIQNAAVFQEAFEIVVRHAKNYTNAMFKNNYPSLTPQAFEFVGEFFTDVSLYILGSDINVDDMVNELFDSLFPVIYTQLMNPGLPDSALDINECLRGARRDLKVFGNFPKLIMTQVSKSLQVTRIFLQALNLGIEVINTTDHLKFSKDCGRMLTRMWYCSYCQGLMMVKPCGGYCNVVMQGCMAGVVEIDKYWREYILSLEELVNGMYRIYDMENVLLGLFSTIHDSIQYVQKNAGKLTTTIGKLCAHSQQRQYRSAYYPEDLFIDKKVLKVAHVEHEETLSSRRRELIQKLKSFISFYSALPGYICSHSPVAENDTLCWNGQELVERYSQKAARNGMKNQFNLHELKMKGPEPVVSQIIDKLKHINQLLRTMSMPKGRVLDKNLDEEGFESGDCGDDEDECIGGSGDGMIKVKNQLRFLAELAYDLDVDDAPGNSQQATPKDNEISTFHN
Binder,FACS X-mode value of the histogram (full-length human GPC3 [1]),FACS X-mode value of the histogram (full-length human GPC3 [2]),EC50 [3],Kd (full-length human GPC3 [4]),koff (full-length human GPC3 [4]),kon (full-length human GPC3 [4]),binding result [5],Inhibition of the binding of indicated biotin-Mab to sGPC3 core (%) [6],Inhibition of the binding of indicated biotin-Mab to sGPC3 core (%) [7],Inhibition of the binding of indicated biotin-Mab to sGPC3 core (%) [8],Inhibition of the binding of indicated biotin-Mab to sGPC3 core (%) [9],Inhibition of the binding of indicated biotin-Mab to sGPC3 core (%) [10],Inhibition of the binding of indicated biotin-Mab to sGPC3 core (%) [11],Inhibition of the binding of indicated biotin-Mab to sGPC3 core (%) [12],Inhibition of the binding of indicated biotin-Mab to sGPC3 core (%) [13],FACS X-mode value of the histogram (full-length human GPC3 [14]),binding result [15],binding result [16],binding result [17]
B1,26,4,0.62 nM,10.7 nM,0.0014 s⁻¹,130000 M⁻¹ s⁻¹,no binding,-4.8%,6.4%,10.1%,92.2%,1.2%,6%,15.7%,2.1%,29,,,
B2,,,,,,,,,,,,,,,,,binds,binds,binds
